Biological target: cyclin/cdk2 complexes immunoprecipitated from HeLa cell extracts by cdk2 antisera (UniProt P24941)
Test: cell-based or functional assay

**Q.** “GST-SDI-1 fusion protein (Schistosoma japonicum glutathione S-transferase amino acids 1-226, hinge Pro-Arg-Gly-Asp-Pro-Pro-Ala, SDI-1)” was tested. Which half maximal inhibition of histone H1 kinase activity did it give?
**A.** 250 ng

Reference: patent EP0723402B1
